Results: doi:10.1101/2024.11.06.622366
Like-named read-outs stand apart in the source and are kept apart here. One block for each substance: values may come before it.

Key:
[1] = biological target: 11S, large fragment of a split luciferase
[2] = biological target: 11S, large fragment of a split luciferase; remark: listed apart in the source
[3] = biological target: 11S, large fragment of a split luciferase; remark: listed apart in the source
[4] = biological target: 11S, large fragment of a split luciferase; remark: listed apart in the source
[5] = biological target: 11S, large fragment of a split luciferase; remark: listed apart in the source
[6] = biological target: 11S, large fragment of a split luciferase; remark: listed apart in the source
[7] = biological target: 11S, large fragment of a split luciferase; remark: listed apart in the source
[8] = biological target: 11S, large fragment of a split luciferase; remark: listed apart in the source

Kd [1]: 284 nM
Substance: PINK1(3EA) LDD (from UniProt Q9BXM7 78-581)

Kd [2]: 715 nM
Substance: PINK1(3EA) DDL (from UniProt Q9BXM7 78-581)

Kd [3]: 187 nM
Substance: PINK1Δ(1-91) DDL (from UniProt Q9BXM7 92-581)

Kd [4]: 93.7 nM
Substance: PINK1(3EA) DLD (from UniProt Q9BXM7 78-581)

Kd [5]: 447 nM
Substance: PINK1Δ(1-150) DDL (from UniProt Q9BXM7 151-581)

Kd [6]: 144 nM
Substance: PINK1 DDL I111S (from UniProt Q9BXM7 78-581)

Kd [7]: 133 nM
Substance: PINK1(ALALAL) DDL (from UniProt Q9BXM7 78-581)

Kd [8]: 238 nM
Substance: PINK1Δ(1-50) DDL (from UniProt Q9BXM7 51-581)
